Assay results taken from PMC11629141 (2024).

Tests used:
[1] = biological target: T1, 6G11 (BI‐1206), full‐length antibody containing the PGLALA Fc mutations (human); test: BLI
[2] = biological target: T1, 6G11 (BI‐1206), full‐length antibody …; test: ELISA
[3] = biological target: T1, 6G11 (BI‐1206), full‐length antibody …; test: ELISA; first of two printed values (3.3/28.7)
[4] = biological target: T2, S2B‐W104A‐6G11 post MMP‐9 digestion (scFv cleaved off, not removed) (human | chicken); test: BLI
[5] = biological target: T3, S2B‐R101A‐6G11 post MMP‐9 digestion (scFv cleaved off, not removed) (human | chicken); test: BLI
[6] = biological target: T4, S2B‐Y52A‐6G11 post MMP‐9 digestion (scFv cleaved off, not removed) (human | chicken); test: BLI
[7] = biological target: T4, S2B‐Y52A‐6G11 post MMP‐9 digestion …; test: BLI; MMP-9 cleaved
Target sequence in this assay (heavy, as listed by the source, chain 2 of 2): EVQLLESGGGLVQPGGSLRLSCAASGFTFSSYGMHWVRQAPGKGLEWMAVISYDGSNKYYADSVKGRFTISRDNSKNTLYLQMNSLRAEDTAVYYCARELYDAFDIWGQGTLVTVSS
Target sequence in this assay (light, as listed by the source, chain 4 of 2): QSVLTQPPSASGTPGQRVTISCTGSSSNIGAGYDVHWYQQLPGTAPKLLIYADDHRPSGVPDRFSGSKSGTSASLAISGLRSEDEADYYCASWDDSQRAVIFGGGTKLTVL

[8] = biological target: T2, S2B‐W104A‐6G11 post MMP‐9 digestion …; test: BLI; MMP-9 cleaved
Target sequence in this assay (heavy, as listed by the source, chain 2 of 2): as the sequence (heavy, as listed by the source, chain 2 of 2) above
Target sequence in this assay (light, as listed by the source, chain 4 of 2): as the sequence (light, as listed by the source, chain 4 of 2) above

[9] = biological target: T3, S2B‐R101A‐6G11 post MMP‐9 digestion …; test: BLI; MMP-9 cleaved
Target sequence in this assay (heavy, as listed by the source, chain 2 of 2): as the sequence (heavy, as listed by the source, chain 2 of 2) above
Target sequence in this assay (light, as listed by the source, chain 4 of 2): as the sequence (light, as listed by the source, chain 4 of 2) above

T1 sequence (VH, as listed by the source, chain 1 of 2): as the sequence (heavy, as listed by the source, chain 2 of 2) above
T1 sequence (VL, as listed by the source, chain 2 of 2): as the sequence (light, as listed by the source, chain 4 of 2) above

| Kd [1] [nM] | EC50 [2] [nM] | Binder | also measured |
| --- | --- | --- | --- |
| 9.6 | 6.7 | S2B W104A scFv, solitary (scFv, V domains shown) VH: AVTLDESGGGLQTPGGGLSLVCKASGFTFSSYSMVWVRQAPSKRLEWVAGIYSSATWTYYAPAVKGRATISRDNGQSTVRLQLNDLRAEDTGTYFCAKTSRSGATAYSASAIDAWGHGTEVIV VL: ALTQPSSVSANPGETVKITCSGGSSYYGWYQQKSPGSAPVTVIYSNDKRPSDIPSRFSGSTSGSTATLTITGVQADDEAVYFCGGYDSNIHGGIFGAGTTLTVL |  |
| 4.3 | 11.2 | S2B Y52A scFv, solitary (scFv, V domains shown) VH: AVTLDESGGGLQTPGGGLSLVCKASGFTFSSYSMVWVRQAPSKRLEWVAGIASSATWTYYAPAVKGRATISRDNGQSTVRLQLNDLRAEDTGTYFCAKTSRSGWTAYSASAIDAWGHGTEVIV VL: ALTQPSSVSANPGETVKITCSGGSSYYGWYQQKSPGSAPVTVIYSNDKRPSDIPSRFSGSTSGSTATLTITGVQADDEAVYFCGGYDSNIHGGIFGAGTTLTVL |  |
| 0.8 | 2.7 | S2B S164A scFv, solitary (scFv, V domains shown) VH: AVTLDESGGGLQTPGGGLSLVCKASGFTFSSYSMVWVRQAPSKRLEWVAGIYSSATWTYYAPAVKGRATISRDNGQSTVRLQLNDLRAEDTGTYFCAKTSRSGWTAYSASAIDAWGHGTEVIV VL: ALTQPSSVSANPGETVKITCSGGASYYGWYQQKSPGSAPVTVIYSNDKRPSDIPSRFSGSTSGSTATLTITGVQADDEAVYFCGGYDSNIHGGIFGAGTTLTVL |  |
| 1 |  | S2B scFv (blocking anti‐6G11 scFv clone 2), solitary (scFv, V domains shown) VH: AVTLDESGGGLQTPGGGLSLVCKASGFTFSSYSMVWVRQAPSKRLEWVAGIYSSATWTYYAPAVKGRATISRDNGQSTVRLQLNDLRAEDTGTYFCAKTSRSGWTAYSASAIDAWGHGTEVIV VL: ALTQPSSVSANPGETVKITCSGGSSYYGWYQQKSPGSAPVTVIYSNDKRPSDIPSRFSGSTSGSTATLTITGVQADDEAVYFCGGYDSNIHGGIFGAGTTLTVL | EC50 [3]: 3.3 nM |
|  | 3.7 | S2B R101A scFv, solitary (scFv, V domains shown) VH: AVTLDESGGGLQTPGGGLSLVCKASGFTFSSYSMVWVRQAPSKRLEWVAGIYSSATWTYYAPAVKGRATISRDNGQSTVRLQLNDLRAEDTGTYFCAKTSASGWTAYSASAIDAWGHGTEVIV VL: ALTQPSSVSANPGETVKITCSGGSSYYGWYQQKSPGSAPVTVIYSNDKRPSDIPSRFSGSTSGSTATLTITGVQADDEAVYFCGGYDSNIHGGIFGAGTTLTVL |  |
|  |  | His‐tagged human FcγRIIB extracellular domain protein (domain or fragment) TPAAPPKAVLKLEPQWINVLQEDSVTLTCRGTHSPESDSIQWFHNGNLIPTHTQPSYRFKANNNDSGEYTCQTGQTSLSDPVHLTVLSEWLVLQTPHLEFQEGETIVLRCHSWKDKPLVKVTFFQNGKSKKFSRSDPNFSIPQANHSHSGDYHCTGNIGYTLYSSKPVTITVQAP | Kd [4]: 10.3 nM; Kd [5]: 10.7 nM; Kd [6]: 10.1 nM; Kd [7]: 10.1 nM; Kd [8]: 10.3 nM; Kd [9]: 10.7 nM |
